PMC5829129, “Synthesis of an Al^18F radiofluorinated GLU-UREA-LYS(AHX)-HBED-CC PSMA ligand in an automated synthesis platform” (EJNMMI Radiopharmacy and Chemistry, 2018)
Read-outs that look alike come from different tables or passages of the source.

How the values were obtained:
[1] = type: physicochemical; details: for Radiochemical purity in the final formulation at room temperature: final formulation vial, HPLC C8, gamma detector, n = 3
Experimental: The radiochemical purity (RP) was determined using HPLC analysis, a reverse phase column Agilent ZORBAX Eclipse Plus C8 4.6x150mm 5 μm column, flux 2.0 mL/min and the following solvent gradient: (A) TFA 0.1% (v/v) in water, (B) TFA 0.1% (v/v) in acetonitrile; 0–7 min 0 %B, 7–10 min (0–50) %B with GAMMA detector. The stability in the labeling milieu, after purification and preconditioning [^18F]-AlF-PSMA, was performed after incubation the final formulation vial at room temperature for 4 h. In both cases, samples were analyzed by HPLC, using previously described chromatographic conditions.

[2] = system: LNCaP human prostate cancer cell line xenograft; test: In vivo PET/CT imaging of LNCaP xenograft mice, tumour/muscle ratio; parameters: species or system Nude N: NIH (S) – Foxn 1nu mice; details: PET, 60 min after iv injection (33–46 MBq), LNCaP xenograft nude mice, n = 3
Experimental: Nude N: NIH (S) – Foxn 1nu mice […] were used as prostate cancer tumour model, for in vivo studies. Animals were housed in racks with filtered air under controlled conditions temperature (24 ± 1) °C and relative humidity (40–60)%). They were maintained on a 14:10 h light/dark cycles in the CUDIM animal facility with food and water ad libitum.
For the development of a xenographic human prostate cancer model, LNCaP human prostate cancer cell line (ATCC ATCC® CRL-1740™).
A xenographic human prostate cancer model was used as the prostate cancer tumour model. 5 million LNCaP cells, suspended in 200 μL of culture media (RPMI) with matrix gel, were injected subcutaneously into the left upper leg of male nude mice (2 months old). Appropriate tumour volumes (100–350 mm^3) were achieved between four to six weeks post inoculation. Percutaneous testorerone was daily applied to each mice. Tumours were measured once a week with a microcalliper in two dimensions, and tumour volumes were calculated as (smaller diameter)^2 x larger diameter x π/6.
PET/CT scans were performed using a small animal tri-modality PET/SPECT/CT scanner (TriumphTM, TriFoil, Inc., US) based on Quad-APD detector modules coupled with LYSO/LGSO scintillators (spatial resolution: 1.0 mm; axial field of view (FOV): 3.75 cm). […]
Image processing and semi-quantitative analysis was done using PMOD software, v.3.4. […]

[3] = cited from earlier work
From the text: However, the work of S. Lütje, et al. presented in the EANM 2017, obtain a product which is not stable in PBS, TFA or ethanol. In addition, the product presented in vivo a bone uptake associated with instability of the compound. (Lütje et al. [2017]). Nevertheless E. Al-Momani et al. (Al-Momami et al. [2017]) reported that the stability of the radiopharmaceutical was highly dependent of the formulation conditions, being stable in saline solution with 1% of ethanol or acetate buffer pH 6, and not stable in ethanol 10%/PBS. || Our results with the automated synthesis were in agreement with those previously reported by N. Malik, et by a manual process. In this paper the optimal pH of labeling turned out to be 5 and the stability was greater than 90% at 4 h post production (Malik et al. [2015]). || Recently Kersemans et al. ([n.d.]) have reported an automated synthesis of this radiopharmaceutical in a modified SynthraFCHOL synthesis module (Synthra GmbH, Hamburg, Germany), with a similar e.o.s yield. 100 to 200 μg of the peptide were necessary to achieve a labelling yield higher than 70%. The radiopharmaceutical was stable in buffer phosphate 5 mM pH 7 at least during 150 min.

[4] = cited from earlier work; remark: listed apart in the source
From the text: However, the work of S. Lütje, et al. presented in the EANM 2017, obtain a product which is not stable in PBS, TFA or ethanol. In addition, the product presented in vivo a bone uptake associated with instability of the compound. (Lütje et al. [2017]). Nevertheless E. Al-Momani et al. (Al-Momami et al. [2017]) reported that the stability of the radiopharmaceutical was highly dependent of the formulation conditions, being stable in saline solution with 1% of ethanol or acetate buffer pH 6, and not stable in ethanol 10%/PBS.

## [^18F]AlF-[GLU-UREA-LYS(AHX)-HBED-CC] [[^18F]AlF-PSMA-11]
[1]
  Time of stability in the final formulation vial: 4 h
[1]; during 4 h post production, room temperature, HPLC
  Radiochemical purity in the final formulation vial: greater than 90%
[1]; room temperature, 1 h post synthesis
  Radiochemical purity in the final formulation at room temperature: 94.6 ± 1.8%
[1]; room temperature, 2 h post synthesis
  Radiochemical purity in the final formulation at room temperature: 92.8 ± 2.5%
[1]; room temperature, 3 h post synthesis
  Radiochemical purity in the final formulation at room temperature: 93.7 ± 2.0%
[1]; room temperature, 4 h post synthesis
  Radiochemical purity in the final formulation at room temperature: 94.2 ± 2.8%
[2]
  mean T/M ratio (T = Tumor, M = muscle): 2.2 ± 0.9
[3]
  Stability in PBS, TFA or ethanol: not stable
  Stability in ethanol 10%/PBS: not stable
[3]; pH 5
  Stability at 4 h post production: greater than 90%
[3]; pH 6
  Stability in saline solution with 1% of ethanol or acetate buffer pH 6: stable
[3]; pH 7
  Time of stability in buffer phosphate 5 mM pH 7: ≥ 150 min
[4]
  In vivo bone uptake associated with instability of the compound: bone uptake
